Results: patent US20230272104A1 (LEGEND BIOTECH IRELAND, published 2023)
Blank lines part the entries; values can stand above or below the binder they belong to.

Tests used:
[1] = molecular target: T1, human CD20 (membrane spanning 4-domains A1, MS4A1) on cells (human, UniProt P11836 1-297); assay: flow cytometry, mAb titrated on Raji cells, PE anti-human IgG1 Fc detection
T1 construct: whole, on cells; Target cells used: Raji, K562-CD20, CHO-CD20, Daudi, RPMI-8226 (very low CD20); also called CD20 receptor; CD20 antigen
T1 sequence (looked up): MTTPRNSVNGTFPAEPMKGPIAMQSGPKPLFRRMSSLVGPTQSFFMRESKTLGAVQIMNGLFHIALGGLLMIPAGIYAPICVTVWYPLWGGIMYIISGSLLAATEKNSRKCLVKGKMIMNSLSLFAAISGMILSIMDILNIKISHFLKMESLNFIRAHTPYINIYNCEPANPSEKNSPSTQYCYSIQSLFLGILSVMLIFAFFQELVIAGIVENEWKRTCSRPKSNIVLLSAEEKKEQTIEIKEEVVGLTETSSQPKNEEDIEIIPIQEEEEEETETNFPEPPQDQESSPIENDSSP
Description: (§1) Each of three exemplary of anti-CD20 VHH sequences (clone ID: VHH-273, VHH-466 and VHH-496) with human IgG1 Fc fragment sequence (SEQ ID NO: 159) were cloned into a mammalian expression vector—pcDNA3.4, to facilitate the recombinant protein expression. The DNA codons were further optimized for optimal expression in mammalian host cell—Expi293F. The antibodies were harvested from the supernatant of cell culture, one-step purified by MabSelect SuRe LX and sterilized via a 0.2 μm filter. The purified antibody concentrations were determined by A280 and reached 2-6 mg/mL with ˜90% purity. Anti-CD20 scFv-huIgG1Fc mAb with amino acid sequence of Rituximab (C2B8) scFv shown in SEQ ID NO: 158 and anti-CD20 Fab-huIgG1Fc mAb with amino acid sequences of Leul6 VH-CH1 and VL-CL shown in SEQ ID NO: 163 and SEQ ID NO: 164 were used as positive controls for the cell surface binding assay. CD20 positive cell lines—Raji, K562-CD20 and negative cell line—K562 were re-suspended in complete culture medium, cells concentration was diluted to 1×10⁶ cells/mL and the staining was performed in 2×10⁵ cells per well. The mAbs were serially diluted from maximal concentration of 2000 nM (3-fold reduction, 12 pts) and added according to the experimental plan and protocol. The mAbs and cells were co-incubated for 1 hour at 4° C. Then, the cells were washed with 2(X) μL of DPBS+0.5% FBS and spun at 300 g for 5 mins, 4° C. The cells were stained with the detection antibody—PE-conjugated mouse anti-human IgG1 Fc (BioLegend, Cat. #409304, 1:100) for 40 mins at 4° C. The cells were then washed again and re-suspended with 200 μL of DPBS+0.5% FBS for flow cytometric analysis on a NovoCyte Flow Cytometer (ACEA Biosciences). The FACS data was analyzed by Novoexpress software, and the MFI (median fluorescent intensity) was analyzed by GraphPad PRISM version 6.0.

[2] = molecular target: T1, human CD20 (membrane spanning 4-domains …); assay: flow cytometry, mAb titrated on K562-CD20 cells, PE anti-human IgG1 Fc detection
Description: as §1, with “The mAbs and cells were co-incubated for 1 hour at 4° C. Then, the cells were washed with 2(X) μL of DPBS+0.5% FBS and spun at 300 g for 5 mins, 4° C. The cells were stained with the detection antibody—PE-conjugated mouse anti-human IgG1 Fc (BioLegend, Cat. #409304, 1:100) for 40 mins at 4° C. The cells were then washed again and re-suspended with 200 μL of DPBS+0.5% FBS for flow cytometric analysis on a NovoCyte Flow Cytometer (ACEA Biosciences).” left out

EC50 [1]: 13.5 nM
B1: Anti-CD20 Fab-huIgG1Fc mAb (antibody, V domains shown)
VH: EVQLQQSGAELVKPGASVKMSCKASGYTFTSYNMHWVKQTPGQGLEWIGAIYPGNGDTSYNQKFKGKATLTADKSSSTAYMQLSSLTSEDSADYYCARSNYYGSSYWFFDVWGAGTTVTVSS
VL: DIVLTQSPAILSASPGEKVTMTCRASSSVNYMDWYQKKPGSSPKPWIYATSNLASGVPARFSGSGSGTSYSLTISRVEAEDAATYYCQQWSFNPPTFGGGTKLEIKR
notes: also called Leul6 (Leu16) Fab-huIgG1Fc; not shown: human IgG1 Fc by the name

EC50 [1]: 75.3 nM
EC50 [2]: 41.1 nM
B2: Anti-CD20 scFv-huIgG1Fc mAb (Fc fusion)
chain: QIVLSQSPAILSASPGEKVTMTCRASSSVSYIHWFQQKPGSSPKPWIYATSNLASGVPVRFSGSGSGTSYSLTISRVEAEDAATYYCQQWTSNPPTFGGGTKLEIKGGGGSGGGGSGGGGSQVQLQQPGAELVKPGASVKMSCKASGYTFTSYNMHWVKQTPGRGLEWIGAIYPGNGDTSYNQKFKGKATLTADKSSSTAYMQLSSLTSEDSAVYYCARSTYYGGDWYFNVWGAGTTVTVSA
notes: also called Rituximab (C2B8) scFv-huIgG1Fc; not shown: human IgG1 Fc by the name

EC50 [1]: 11.1 nM
EC50 [2]: 6.24 nM
B3: VHH-440-huIgG1Fc mAb (Fc fusion)
chain: QVHLMESGGGSVQAGGSLRLSCQASAYIRVFYLMGWFRQAPGKEREEVARVTADGFTNHAASVKGRFTISKDNAKNTLYLQMDSMKSEDTAVYYCAAGRTWNSGFEYWGQGTQVTVSS
notes: not shown: human IgG1 Fc by the name
